Starred links: 1 amine or outer side, 2 acyl side, 3 side chain; linkers in the order of their positions; H or OH if unused. Positions of bridges follow the written chain, without caps; N, C: chain ends. Non-standard residues stand in square brackets, D forms with d. Groups on a side chain read outwards from the residue. *: point of attachment. Trp(1-Me) = Cn1cc(C[C@H](N)C(=O)O)c2ccccc21; C16 diacid = O=C(O)CCCCCCCCCCCCCCC(=O)*; γGlu = O=C(O)[C@H](CCC(=O)[*:2])N[*:1]; Sar = CNCC(=O)O
B1: Compound 79 (peptide)
peptide: Ac-SEFCI[Trp(1-Me)]QDW[Sar]EHRC[Sar]E-NH2
modifications: disulfide 4-14
SMILES: CC[C@H](C)[C@@H]1NC(=O)[C@@H](NC(=O)[C@H](Cc2ccccc2)NC(=O)[C@H](CCC(=O)O)NC(=O)[C@H](CO)NC(C)=O)CSSC[C@@H](C(=O)N(C)CC(=O)N[C@@H](CCC(=O)O)C(N)=O)NC(=O)[C@H](CCCNC(=N)N)NC(=O)[C@H](Cc2c[nH]cn2)NC(=O)[C@H](CCC(=O)O)NC(=O)CN(C)C(=O)[C@H](Cc2c[nH]c3ccccc23)NC(=O)[C@H](CC(=O)O)NC(=O)[C@H](CCC(N)=O)NC(=O)[C@H](Cc2cn(C)c3ccccc23)NC1=O
B2: Compound 76 (peptide)
peptide: Ac-SEFCI[Trp(1-Me)]QDW[Sar]EHRC[Sar]EA-NH2
modifications: disulfide 4-14
SMILES: CC[C@H](C)[C@@H]1NC(=O)[C@@H](NC(=O)[C@H](Cc2ccccc2)NC(=O)[C@H](CCC(=O)O)NC(=O)[C@H](CO)NC(C)=O)CSSC[C@@H](C(=O)N(C)CC(=O)N[C@@H](CCC(=O)O)C(=O)N[C@@H](C)C(N)=O)NC(=O)[C@H](CCCNC(=N)N)NC(=O)[C@H](Cc2c[nH]cn2)NC(=O)[C@H](CCC(=O)O)NC(=O)CN(C)C(=O)[C@H](Cc2c[nH]c3ccccc23)NC(=O)[C@H](CC(=O)O)NC(=O)[C@H](CCC(N)=O)NC(=O)[C@H](Cc2cn(C)c3ccccc23)NC1=O
B3: Compound 74 (peptide)
peptide: Ac-SEFCI[Trp(1-Me)]QDWGEHRC[Sar]GAES-NH2
modifications: disulfide 4-14
SMILES: CC[C@H](C)[C@@H]1NC(=O)[C@@H](NC(=O)[C@H](Cc2ccccc2)NC(=O)[C@H](CCC(=O)O)NC(=O)[C@H](CO)NC(C)=O)CSSC[C@@H](C(=O)N(C)CC(=O)NCC(=O)N[C@@H](C)C(=O)N[C@@H](CCC(=O)O)C(=O)N[C@@H](CO)C(N)=O)NC(=O)[C@H](CCCNC(=N)N)NC(=O)[C@H](Cc2c[nH]cn2)NC(=O)[C@H](CCC(=O)O)NC(=O)CNC(=O)[C@H](Cc2c[nH]c3ccccc23)NC(=O)[C@H](CC(=O)O)NC(=O)[C@H](CCC(N)=O)NC(=O)[C@H](Cc2cn(C)c3ccccc23)NC1=O
B4: Compound 88 (peptide)
peptide: Ac-GE[Sar]CI[Trp(1-Me)]QDWGEHRCTEA-NH2
modifications: disulfide 4-14
SMILES: CC[C@H](C)[C@@H]1NC(=O)[C@@H](NC(=O)CN(C)C(=O)[C@H](CCC(=O)O)NC(=O)CNC(C)=O)CSSC[C@@H](C(=O)N[C@H](C(=O)N[C@@H](CCC(=O)O)C(=O)N[C@@H](C)C(N)=O)[C@@H](C)O)NC(=O)[C@H](CCCNC(=N)N)NC(=O)[C@H](Cc2c[nH]cn2)NC(=O)[C@H](CCC(=O)O)NC(=O)CNC(=O)[C@H](Cc2c[nH]c3ccccc23)NC(=O)[C@H](CC(=O)O)NC(=O)[C@H](CCC(N)=O)NC(=O)[C@H](Cc2cn(C)c3ccccc23)NC1=O
B5: Compound 78 (peptide)
peptide: Ac-SEFCI[Trp(1-Me)]QDWGEHRC[Sar]E-NH2
modifications: disulfide 4-14
SMILES: CC[C@H](C)[C@@H]1NC(=O)[C@@H](NC(=O)[C@H](Cc2ccccc2)NC(=O)[C@H](CCC(=O)O)NC(=O)[C@H](CO)NC(C)=O)CSSC[C@@H](C(=O)N(C)CC(=O)N[C@@H](CCC(=O)O)C(N)=O)NC(=O)[C@H](CCCNC(=N)N)NC(=O)[C@H](Cc2c[nH]cn2)NC(=O)[C@H](CCC(=O)O)NC(=O)CNC(=O)[C@H](Cc2c[nH]c3ccccc23)NC(=O)[C@H](CC(=O)O)NC(=O)[C@H](CCC(N)=O)NC(=O)[C@H](Cc2cn(C)c3ccccc23)NC1=O
B6: Compound 90 (peptide)
peptide: Ac-SE[Sar]CI[Trp(1-Me)]QEWGEHRC[Sar]EA-NH2
modifications: disulfide 4-14
SMILES: CC[C@H](C)[C@@H]1NC(=O)[C@@H](NC(=O)CN(C)C(=O)[C@H](CCC(=O)O)NC(=O)[C@H](CO)NC(C)=O)CSSC[C@@H](C(=O)N(C)CC(=O)N[C@@H](CCC(=O)O)C(=O)N[C@@H](C)C(N)=O)NC(=O)[C@H](CCCNC(=N)N)NC(=O)[C@H](Cc2c[nH]cn2)NC(=O)[C@H](CCC(=O)O)NC(=O)CNC(=O)[C@H](Cc2c[nH]c3ccccc23)NC(=O)[C@H](CCC(=O)O)NC(=O)[C@H](CCC(N)=O)NC(=O)[C@H](Cc2cn(C)c3ccccc23)NC1=O
B7: Compound 77 (peptide)
peptide: Ac-SEFCI[Trp(1-Me)]QDW[Sar]EHRCTEA-NH2
modifications: disulfide 4-14
SMILES: CC[C@H](C)[C@@H]1NC(=O)[C@@H](NC(=O)[C@H](Cc2ccccc2)NC(=O)[C@H](CCC(=O)O)NC(=O)[C@H](CO)NC(C)=O)CSSC[C@@H](C(=O)N[C@H](C(=O)N[C@@H](CCC(=O)O)C(=O)N[C@@H](C)C(N)=O)[C@@H](C)O)NC(=O)[C@H](CCCNC(=N)N)NC(=O)[C@H](Cc2c[nH]cn2)NC(=O)[C@H](CCC(=O)O)NC(=O)CN(C)C(=O)[C@H](Cc2c[nH]c3ccccc23)NC(=O)[C@H](CC(=O)O)NC(=O)[C@H](CCC(N)=O)NC(=O)[C@H](Cc2cn(C)c3ccccc23)NC1=O
B8: Compound 87 (peptide)
peptide: Ac-GEFCI[Trp(1-Me)]QDWGEHRC[Sar]EA-NH2
modifications: disulfide 4-14
SMILES: CC[C@H](C)[C@@H]1NC(=O)[C@@H](NC(=O)[C@H](Cc2ccccc2)NC(=O)[C@H](CCC(=O)O)NC(=O)CNC(C)=O)CSSC[C@@H](C(=O)N(C)CC(=O)N[C@@H](CCC(=O)O)C(=O)N[C@@H](C)C(N)=O)NC(=O)[C@H](CCCNC(=N)N)NC(=O)[C@H](Cc2c[nH]cn2)NC(=O)[C@H](CCC(=O)O)NC(=O)CNC(=O)[C@H](Cc2c[nH]c3ccccc23)NC(=O)[C@H](CC(=O)O)NC(=O)[C@H](CCC(N)=O)NC(=O)[C@H](Cc2cn(C)c3ccccc23)NC1=O
B9: Compound 84 (peptide)
peptide: Ac-SEFCI[Trp(1-Me)]QDWGEHRCSEA-NH2
modifications: disulfide 4-14
SMILES: CC[C@H](C)[C@@H]1NC(=O)[C@@H](NC(=O)[C@H](Cc2ccccc2)NC(=O)[C@H](CCC(=O)O)NC(=O)[C@H](CO)NC(C)=O)CSSC[C@@H](C(=O)N[C@@H](CO)C(=O)N[C@@H](CCC(=O)O)C(=O)N[C@@H](C)C(N)=O)NC(=O)[C@H](CCCNC(=N)N)NC(=O)[C@H](Cc2c[nH]cn2)NC(=O)[C@H](CCC(=O)O)NC(=O)CNC(=O)[C@H](Cc2c[nH]c3ccccc23)NC(=O)[C@H](CC(=O)O)NC(=O)[C@H](CCC(N)=O)NC(=O)[C@H](Cc2cn(C)c3ccccc23)NC1=O
B10: Compound 89 (peptide)
peptide: Ac-SE[Sar]CI[Trp(1-Me)]QEW[Sar]EHRCTEA-NH2
modifications: disulfide 4-14
SMILES: CC[C@H](C)[C@@H]1NC(=O)[C@@H](NC(=O)CN(C)C(=O)[C@H](CCC(=O)O)NC(=O)[C@H](CO)NC(C)=O)CSSC[C@@H](C(=O)N[C@H](C(=O)N[C@@H](CCC(=O)O)C(=O)N[C@@H](C)C(N)=O)[C@@H](C)O)NC(=O)[C@H](CCCNC(=N)N)NC(=O)[C@H](Cc2c[nH]cn2)NC(=O)[C@H](CCC(=O)O)NC(=O)CN(C)C(=O)[C@H](Cc2c[nH]c3ccccc23)NC(=O)[C@H](CCC(=O)O)NC(=O)[C@H](CCC(N)=O)NC(=O)[C@H](Cc2cn(C)c3ccccc23)NC1=O
B11: Compound 83 (peptide)
peptide: Ac-SEFCI[Trp(1-Me)]QEWGEHRC[Sar]EA-NH2
modifications: disulfide 4-14
SMILES: CC[C@H](C)[C@@H]1NC(=O)[C@@H](NC(=O)[C@H](Cc2ccccc2)NC(=O)[C@H](CCC(=O)O)NC(=O)[C@H](CO)NC(C)=O)CSSC[C@@H](C(=O)N(C)CC(=O)N[C@@H](CCC(=O)O)C(=O)N[C@@H](C)C(N)=O)NC(=O)[C@H](CCCNC(=N)N)NC(=O)[C@H](Cc2c[nH]cn2)NC(=O)[C@H](CCC(=O)O)NC(=O)CNC(=O)[C@H](Cc2c[nH]c3ccccc23)NC(=O)[C@H](CCC(=O)O)NC(=O)[C@H](CCC(N)=O)NC(=O)[C@H](Cc2cn(C)c3ccccc23)NC1=O
B12: Compound 80 (peptide)
peptide: Ac-EFCI[Trp(1-Me)]QDWGEHRC[Sar]EA-NH2
modifications: disulfide 3-13
SMILES: CC[C@H](C)[C@@H]1NC(=O)[C@@H](NC(=O)[C@H](Cc2ccccc2)NC(=O)[C@H](CCC(=O)O)NC(C)=O)CSSC[C@@H](C(=O)N(C)CC(=O)N[C@@H](CCC(=O)O)C(=O)N[C@@H](C)C(N)=O)NC(=O)[C@H](CCCNC(=N)N)NC(=O)[C@H](Cc2c[nH]cn2)NC(=O)[C@H](CCC(=O)O)NC(=O)CNC(=O)[C@H](Cc2c[nH]c3ccccc23)NC(=O)[C@H](CC(=O)O)NC(=O)[C@H](CCC(N)=O)NC(=O)[C@H](Cc2cn(C)c3ccccc23)NC1=O
B13: Compound 91 (peptide)
peptide: H-[dY][Sar]CI[Trp(1-Me)]QDWGEHRCTEA-NH2
modifications: disulfide 3-13
SMILES: CC[C@H](C)[C@@H]1NC(=O)[C@@H](NC(=O)CN(C)C(=O)[C@H](N)Cc2ccc(O)cc2)CSSC[C@@H](C(=O)N[C@H](C(=O)N[C@@H](CCC(=O)O)C(=O)N[C@@H](C)C(N)=O)[C@@H](C)O)NC(=O)[C@H](CCCNC(=N)N)NC(=O)[C@H](Cc2c[nH]cn2)NC(=O)[C@H](CCC(=O)O)NC(=O)CNC(=O)[C@H](Cc2c[nH]c3ccccc23)NC(=O)[C@H](CC(=O)O)NC(=O)[C@H](CCC(N)=O)NC(=O)[C@H](Cc2cn(C)c3ccccc23)NC1=O
B14: Compound 92 (peptide)
peptide: Ac-ICIWQDWGEHRCTEGK([γGlu-C16 diacid])-NH2
modifications: disulfide 2-12
SMILES: CC[C@H](C)[C@H](NC(C)=O)C(=O)N[C@H]1CSSC[C@@H](C(=O)N[C@H](C(=O)N[C@@H](CCC(=O)O)C(=O)NCC(=O)N[C@@H](CCCCNC(=O)CC[C@H](NC(=O)CCCCCCCCCCCCCCC(=O)O)C(=O)O)C(N)=O)[C@@H](C)O)NC(=O)[C@H](CCCNC(=N)N)NC(=O)[C@H](Cc2c[nH]cn2)NC(=O)[C@H](CCC(=O)O)NC(=O)CNC(=O)[C@H](Cc2c[nH]c3ccccc23)NC(=O)[C@H](CC(=O)O)NC(=O)[C@H](CCC(N)=O)NC(=O)[C@H](Cc2c[nH]c3ccccc23)NC(=O)[C@H]([C@@H](C)CC)NC1=O

Target: Human C3 (Complement tech cat #A113c) (human, UniProt P01024 23-1663)
Sequence (P01024 23-1663 limits assumed): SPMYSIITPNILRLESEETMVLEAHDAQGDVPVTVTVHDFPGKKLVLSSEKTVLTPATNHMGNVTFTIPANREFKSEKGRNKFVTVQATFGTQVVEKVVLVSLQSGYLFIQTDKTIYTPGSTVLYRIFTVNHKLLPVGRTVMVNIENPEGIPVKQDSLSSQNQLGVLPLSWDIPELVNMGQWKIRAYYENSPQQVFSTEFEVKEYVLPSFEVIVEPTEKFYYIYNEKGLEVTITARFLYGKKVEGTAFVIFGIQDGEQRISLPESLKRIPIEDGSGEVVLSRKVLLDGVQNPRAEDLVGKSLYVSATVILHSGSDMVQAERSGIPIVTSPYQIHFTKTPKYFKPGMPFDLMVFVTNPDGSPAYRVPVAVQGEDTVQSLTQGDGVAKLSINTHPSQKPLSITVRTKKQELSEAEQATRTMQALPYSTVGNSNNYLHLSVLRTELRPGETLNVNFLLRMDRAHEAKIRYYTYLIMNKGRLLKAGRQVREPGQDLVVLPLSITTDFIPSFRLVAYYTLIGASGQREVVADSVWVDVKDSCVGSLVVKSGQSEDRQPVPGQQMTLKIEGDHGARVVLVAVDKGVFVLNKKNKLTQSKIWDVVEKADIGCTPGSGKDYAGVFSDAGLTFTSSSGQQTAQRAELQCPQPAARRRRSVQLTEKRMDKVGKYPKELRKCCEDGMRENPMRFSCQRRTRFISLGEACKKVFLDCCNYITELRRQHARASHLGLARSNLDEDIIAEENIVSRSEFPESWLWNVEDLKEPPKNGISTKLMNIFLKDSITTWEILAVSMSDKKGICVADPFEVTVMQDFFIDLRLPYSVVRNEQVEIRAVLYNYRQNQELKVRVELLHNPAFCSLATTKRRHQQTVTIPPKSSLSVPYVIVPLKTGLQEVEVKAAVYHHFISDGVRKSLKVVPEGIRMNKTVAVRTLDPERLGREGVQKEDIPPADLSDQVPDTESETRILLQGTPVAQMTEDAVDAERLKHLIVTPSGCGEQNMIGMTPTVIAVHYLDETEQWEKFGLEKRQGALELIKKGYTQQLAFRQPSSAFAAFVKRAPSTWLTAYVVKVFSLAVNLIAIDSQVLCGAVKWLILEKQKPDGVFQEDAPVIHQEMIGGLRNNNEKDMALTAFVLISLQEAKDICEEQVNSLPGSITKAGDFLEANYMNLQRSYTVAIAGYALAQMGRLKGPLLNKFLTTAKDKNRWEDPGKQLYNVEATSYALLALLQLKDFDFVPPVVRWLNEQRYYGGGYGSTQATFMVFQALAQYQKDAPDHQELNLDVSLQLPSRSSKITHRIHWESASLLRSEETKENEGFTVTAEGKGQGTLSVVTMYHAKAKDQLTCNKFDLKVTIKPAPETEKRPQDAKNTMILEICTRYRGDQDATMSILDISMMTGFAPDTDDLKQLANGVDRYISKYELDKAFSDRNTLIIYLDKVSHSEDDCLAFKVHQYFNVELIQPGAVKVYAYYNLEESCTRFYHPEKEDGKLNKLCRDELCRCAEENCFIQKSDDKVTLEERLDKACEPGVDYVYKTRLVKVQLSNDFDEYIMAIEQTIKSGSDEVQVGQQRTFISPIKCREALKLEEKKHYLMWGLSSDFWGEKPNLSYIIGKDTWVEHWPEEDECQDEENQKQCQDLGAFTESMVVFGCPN
Assay: cell-based or functional assay

| Binder | inhibition of hemolysis IC50 [nM] |
| --- | --- |
| B1 | < 100 |
| B2 | < 100 |
| B3 | < 100 |
| B4 | < 100 |
| B5 | < 100 |
| B6 | < 250 |
| B7 | < 100 |
| B8 | < 100 |
| B9 | < 100 |
| B10 | < 100 |
| B11 | < 100 |
| B12 | < 100 |
| B13 | < 100 |
| B14 | < 1000 |
